Results as given in patent publication US10894811B2, “Peptide inhibitors of calcium channels” (The University of North Carolina at Chapel Hill, priority 2016, dated 2021).
Entries after “also recorded” stand apart in the source; their conditions may differ.

Assays:
Human ASMCs = assay: Cell contraction assay (collagen gel); format: cell-based; details: pre-incubation with recombinant SPLUNC1; with or without Ach; 60 min
Experimental: Cell contraction assay: The cell contraction assay was performed using a standard commercially available kit (Cell Biolabs). Human ASMCs were harvested and re-suspended in DMEM, two parts of cells were mixed with eight parts of collagen gel lattice mixture and plated for 1 h at 37° C. After the gel solidified, 1 ml of medium was added and incubated for 48 h. Next the gels were released from the sides of wells, and the images were taken using a ChemiDoc™ MP imager (BioRad) at 0 and 1 h after adding indicated reagents. The changes of collagen gel surface areas were analyzed using ImageJ software and normalized to areas of gels at 0 time point.

tracheal rings = assay: Myography of murine tracheal rings (ex vivo contraction); set-up: species or system mouse; details: pretreatment with recombinant SPLUNC1 protein for 1 h prior to agonist addition
Experimental: Myography of Murine Tracheal Rings: Tracheas were excised from 8-week old SPLUNC1 WT and KO mice. After removing excessive connecting tissue, the trachea was cut into ˜4-mm rings, mounted on a DMT 620M myography apparatus and allowed to rest in modified Ringer's solution (119 mM NaCl, 4.7 mM KCl, 1.17 mM MgSO4, 1.18 mM KH2PO4, 2.5 mM CaCl2, 25 mM NaHCO3, 0.027 mM EDTA, 5.5 mM glucose) with continuous oxygenation (95% O2/5% CO2) at 37° C. for 20 min with no applied tension. Optimal passive tension (1 mN) was then applied to the rings. The baseline force was then recorded after stable tension was achieved. The induced contractile force of each ring was assessed by measuring contraction stimulated by 60 mM KCl or […] Ach (unless indicated otherwise), respectively.

TRPC3 = target: T1, TRPC3 (Homo sapiens, UniProt Q13507); assay: Co-immunoprecipitation in HEK293T cell lysates (V5-SPLUNC1 / Myc-TRPC3); format: binding; details: HEK293T cells cotransfected with V5-SPLUNC1 and Myc-TRPC3
T1 construct: host or cells: HEK293T
T1 sequence (Q13507 74-921 limits assumed): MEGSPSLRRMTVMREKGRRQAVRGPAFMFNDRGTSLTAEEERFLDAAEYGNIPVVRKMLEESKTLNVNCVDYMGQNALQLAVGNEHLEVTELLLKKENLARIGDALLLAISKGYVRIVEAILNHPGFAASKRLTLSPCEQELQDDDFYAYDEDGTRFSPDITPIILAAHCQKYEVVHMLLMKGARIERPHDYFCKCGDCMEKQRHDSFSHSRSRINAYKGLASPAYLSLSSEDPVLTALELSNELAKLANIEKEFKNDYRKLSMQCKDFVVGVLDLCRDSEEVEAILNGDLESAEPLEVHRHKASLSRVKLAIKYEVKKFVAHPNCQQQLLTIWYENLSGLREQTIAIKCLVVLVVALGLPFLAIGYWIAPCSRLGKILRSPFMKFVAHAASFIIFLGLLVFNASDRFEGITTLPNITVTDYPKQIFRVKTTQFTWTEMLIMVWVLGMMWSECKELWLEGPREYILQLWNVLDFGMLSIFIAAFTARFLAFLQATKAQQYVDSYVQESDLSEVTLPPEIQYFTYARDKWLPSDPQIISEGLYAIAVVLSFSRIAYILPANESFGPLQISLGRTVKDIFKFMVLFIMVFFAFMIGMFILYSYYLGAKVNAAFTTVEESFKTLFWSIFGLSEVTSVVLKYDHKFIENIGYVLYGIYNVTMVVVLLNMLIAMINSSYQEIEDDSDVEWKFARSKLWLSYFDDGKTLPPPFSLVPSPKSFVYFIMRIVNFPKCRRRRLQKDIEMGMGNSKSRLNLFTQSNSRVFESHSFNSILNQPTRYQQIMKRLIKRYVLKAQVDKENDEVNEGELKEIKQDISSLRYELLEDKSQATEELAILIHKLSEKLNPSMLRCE
Experimental: DNA constructs: Yellow fluorescent protein (YFP) tagged human Orai1 and Myc tagged TRPC3 were gifts from Dr. Craig Montell (Addgene plasmid #25902) and Dr. Anjana Rao (Addgene plasmid #19756), respectively. HA tagged human Orai1 was a generous gift from Dr. Patrick G Hogan at La Jolla Institute for Allergy & Immunology. pcDNA3.1(+)-V5-SPLUNC1 was a generous gift from Dr. Colin D Bingle at the University of Sheffield.
For immunoprecipitation, cell lysates were collected at 48 h post-transfection in Pierce® IP lysis buffer in the presence of 1× protease inhibitor cocktail (PIC) (Roche). Cell lysates were pre-cleared with protein A/G agarose beads and then incubated with 1 μg of antibodies against HA (BioLegend) or V5 (Invitrogen) with protein A/G agarose beads on a rotator at 4° C. overnight. After three washes with IP lysis buffer, immunoprecipitated complexes were eluted in sample buffer (50 mM Tris-HCl [pH 6.8], 2% sodium dodecyl sulfate (SDS), 10% glycerol, 5% (v/v) β-mercaptoethanol (BME), 0.1% bromophenol blue) by heating the samples at 95° C. for 5 min, electrophoresed through SDS-polyacrylamide gels, and subjected to immunoblot analysis.

Orai1 = Orai1 (Homo sapiens, UniProt Q96D31); assay: Surface labeling and ground state depletion super resolution microscopy; format: cell-based; set-up: expressed in transfected cells; details: ASMC plasma membranes, after 1 h incubation
Orai1, sequence (Q96D31 whole entry): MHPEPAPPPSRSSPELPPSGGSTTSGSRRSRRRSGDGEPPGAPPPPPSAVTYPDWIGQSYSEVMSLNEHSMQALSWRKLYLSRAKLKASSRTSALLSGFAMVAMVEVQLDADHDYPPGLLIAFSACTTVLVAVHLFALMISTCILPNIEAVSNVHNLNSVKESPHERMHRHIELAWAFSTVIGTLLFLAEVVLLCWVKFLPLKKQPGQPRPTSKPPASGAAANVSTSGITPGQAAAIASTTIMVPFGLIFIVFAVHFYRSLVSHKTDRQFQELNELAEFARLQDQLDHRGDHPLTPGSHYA
Experimental: Surface labeling and super resolution microscopy: Human ASMs were grown on 22×22 mm^2 glass coverslips and transfected with the HA-Orai1. 24 h after transfection, cells were fixed with 4% paraformaldehyde (PFA) in PBS, followed by surface labeling with mouse anti-HA antibody (BioLegend) and Alexa 488 goat anti mouse antibody (Life Technologies) at 4° C. After washing with ice cold PBS for five times, cells were incubated with 5 μM SPLUNC1-DyLight 594 for 1 h at 4° C. prior to imaging.
Prior to mounting, 90 μl of oxygen depleting medium, β-Mercaptoethylamine (MEA) was added to the cavity of depression slides. Coverslips were then mounted on the depression slides and sealed with twinsil (Picodent). Super resolution images were captured with a commercial LEICA GSD super-resolution microscope. Ground state depletion (GSD) was performed using 488 nm and 642 nm m solid-state lasers. Samples were excited using 488 nm and 642 nm lasers and sample acquisition was increased with back-pumping using the 405 nm laser as per the manufacturer's instructions. The microscope was fitted with a 160× oil-immersion objective lens.

B1: SPLUNC1: Short palate, lung and nasal epithelium clone 1, recombinant full length protein (protein, listed as Homo sapiens)
chain: MFQTGGLIVFYGLLAQTMAQFGGLPVPLDQTLPLNVNPALPLSPTGLAGSLTNALSNGLLSGGLLGILENLPLLDILKPGGGTSGGLLGGLLGKVTSVIPGLNNIIDIKVTDPQLLELGLVQSPDGHRLYVTIPLGIKLQVNTPLVGASLLRLAVKLDITAEILAVRDKQERIHLVLGDCTHSPGSLQISLLDGLGPLPIQGLLDSLTGILNKVLPELVQGNVCPLVNEVLRGLDITLVHDIVNMLIHGLQFVIKV
Human ASMCs
  ASMC contraction in collagen matrix (decrease in gel surface area): significantly reduced; also recorded: decreases airway smooth muscle (ASM) contractility
Tracheal rings
  contraction (contractile force) of tracheal rings: suppressed contraction
TRPC3
  co-immunoprecipitation with TRPC3: but not an alternate Ca^2+ channel (TRPC3), could be co-immunoprecipitated; also recorded: does not interact with TRPC3
Orai1
  co-localization of SPLUNC1 and Orai1: co-localize in ASMC plasma membranes
